Legend:
Assay in all cases: SEC; Superdex 200 increase column, 40 mM potassium phosphate, 300 mM NaCl, pH 6.5, 1 mL/min, detection at 220 nm; drug products reconstituted in water for injection
[1] = target: L-Aspase (E. coli L-asparaginase) (E. coli) (UniProt P00805)
[2] = target: T1, Spectrila (recombinant E. coli L-asparaginase type II) (E. coli), P00805; conditions: remark: other sources report otherwise
T1 chain: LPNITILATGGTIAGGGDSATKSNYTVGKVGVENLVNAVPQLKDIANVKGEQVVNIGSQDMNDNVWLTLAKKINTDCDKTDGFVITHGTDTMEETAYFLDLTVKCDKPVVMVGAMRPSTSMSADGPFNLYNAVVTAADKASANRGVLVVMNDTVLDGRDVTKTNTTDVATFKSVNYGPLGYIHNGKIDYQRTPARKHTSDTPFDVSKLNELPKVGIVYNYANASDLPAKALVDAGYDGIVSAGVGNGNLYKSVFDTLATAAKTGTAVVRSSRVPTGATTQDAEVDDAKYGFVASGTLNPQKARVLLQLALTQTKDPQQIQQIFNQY

[3] = target: T2, Bionase (E. coli L-asparaginase) (E. coli), P00805; conditions: remark: other sources report otherwise
T2 chain: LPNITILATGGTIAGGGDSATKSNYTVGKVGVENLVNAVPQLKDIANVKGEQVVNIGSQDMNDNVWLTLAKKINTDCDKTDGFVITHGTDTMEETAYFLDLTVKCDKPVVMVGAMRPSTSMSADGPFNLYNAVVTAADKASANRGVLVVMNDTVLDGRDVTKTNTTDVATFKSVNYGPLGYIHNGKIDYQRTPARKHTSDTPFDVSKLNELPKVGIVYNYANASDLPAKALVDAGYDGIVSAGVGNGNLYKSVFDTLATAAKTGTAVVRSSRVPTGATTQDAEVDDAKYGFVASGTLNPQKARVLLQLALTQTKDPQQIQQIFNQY

[4] = target: T3, Celginase (E. coli L-asparaginase) (E. coli), P00805; conditions: remark: other sources report otherwise
T3 chain: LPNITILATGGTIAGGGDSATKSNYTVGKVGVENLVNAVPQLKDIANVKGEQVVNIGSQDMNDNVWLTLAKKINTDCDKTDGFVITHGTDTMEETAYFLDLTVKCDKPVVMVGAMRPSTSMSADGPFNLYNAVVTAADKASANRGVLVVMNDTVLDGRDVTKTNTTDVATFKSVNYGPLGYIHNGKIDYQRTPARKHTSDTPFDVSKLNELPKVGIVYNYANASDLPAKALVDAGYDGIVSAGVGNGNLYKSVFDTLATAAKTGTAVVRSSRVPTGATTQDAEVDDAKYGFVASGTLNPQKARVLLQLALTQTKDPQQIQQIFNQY

Molecule “L-Aspase (E. coli L-asparaginase) (from UniProt P00805 23-348) (enzyme)” has a stoichiometry N [1] of 4.

B1: Spectrila (recombinant E. coli L-asparaginase type II), P00805 23-348 (enzyme)
chain: LPNITILATGGTIAGGGDSATKSNYTVGKVGVENLVNAVPQLKDIANVKGEQVVNIGSQDMNDNVWLTLAKKINTDCDKTDGFVITHGTDTMEETAYFLDLTVKCDKPVVMVGAMRPSTSMSADGPFNLYNAVVTAADKASANRGVLVVMNDTVLDGRDVTKTNTTDVATFKSVNYGPLGYIHNGKIDYQRTPARKHTSDTPFDVSKLNELPKVGIVYNYANASDLPAKALVDAGYDGIVSAGVGNGNLYKSVFDTLATAAKTGTAVVRSSRVPTGATTQDAEVDDAKYGFVASGTLNPQKARVLLQLALTQTKDPQQIQQIFNQY
B1 gave a stoichiometry N [2] of 4.

B2: Bionase (E. coli L-asparaginase), P00805 23-348 (enzyme)
chain: LPNITILATGGTIAGGGDSATKSNYTVGKVGVENLVNAVPQLKDIANVKGEQVVNIGSQDMNDNVWLTLAKKINTDCDKTDGFVITHGTDTMEETAYFLDLTVKCDKPVVMVGAMRPSTSMSADGPFNLYNAVVTAADKASANRGVLVVMNDTVLDGRDVTKTNTTDVATFKSVNYGPLGYIHNGKIDYQRTPARKHTSDTPFDVSKLNELPKVGIVYNYANASDLPAKALVDAGYDGIVSAGVGNGNLYKSVFDTLATAAKTGTAVVRSSRVPTGATTQDAEVDDAKYGFVASGTLNPQKARVLLQLALTQTKDPQQIQQIFNQY
B2 was tested, and the stoichiometry N [3] was 4.

B3: Celginase (E. coli L-asparaginase), P00805 23-348 (enzyme)
chain: LPNITILATGGTIAGGGDSATKSNYTVGKVGVENLVNAVPQLKDIANVKGEQVVNIGSQDMNDNVWLTLAKKINTDCDKTDGFVITHGTDTMEETAYFLDLTVKCDKPVVMVGAMRPSTSMSADGPFNLYNAVVTAADKASANRGVLVVMNDTVLDGRDVTKTNTTDVATFKSVNYGPLGYIHNGKIDYQRTPARKHTSDTPFDVSKLNELPKVGIVYNYANASDLPAKALVDAGYDGIVSAGVGNGNLYKSVFDTLATAAKTGTAVVRSSRVPTGATTQDAEVDDAKYGFVASGTLNPQKARVLLQLALTQTKDPQQIQQIFNQY
B3 was tested, and the stoichiometry N [4] was 4.
